According to patent US20260042862A1 (AGENCY FOR SCIENCE TECHNOLOGY AND RESEARCH, published 2026):
Each block holds one binder with its values, some of them ahead of it.

How the values were obtained:
[1] = molecular target: T1, recombinant human GPC-3 protein (human, UniProt P51654 25-559, limits assumed); assay: SPR, Biacore T200
T1 construct: also called glypican-3; recombinant GPC-3 protein
Procedure: Affinity of 24 anti-GPC-3 IgG₁ antibodies was measured via Surface Plasmon Resonance (SPR) analysis using Biacore™ T200 system and shown in Table E3 (below).

[2] = molecular target: T2, human GPC-3 on the surface of HepG2 and Hep3B cells (human, UniProt P51654 25-554); assay: flow cytometry on HepG2 (GPC-3 High) cells, MFI against antibody (pM)
T2 construct: whole, on cells; Endogenous GPC-3 of human hepatoma cell lines; also called GPC-3 expressing HepG2 cells; GPC-3^High HepG2
Procedure: (§1) The ability of anti-GPC-3 antibodies to specifically recognize and bind GPC-3 on the surface of cells was measured using HepG2 (GPC-3^High), Hep3B (GPC-3^Medium) and SK-Hep1 (GPC-3^Negative) cells.
(§2) Briefly, HepG2 (GPC-3^High), Hep3B (GPC-3^Medium) and SK-Hep1 (GPC-3^Negative) cells were seeded in cell suspension at 50000 per well in 96-well round-bottom plate before incubation with different concentrations of anti-GPC-3 antibodies. Binding was measured by flow cytometry using a secondary labelled antibody.

[3] = molecular target: T2, human GPC-3 on the surface of HepG2 and …; assay: flow cytometry on Hep3B (GPC-3 Medium) cells, MFI against antibody (pM)
Procedure: as §1, §2

[4] = molecular target: T1, recombinant human GPC-3 protein; assay: binding ELISA with biotin-hGPC-3, EC50 calculated from the curves of FIG. 1A to 1C
[5] = molecular target: T3, mouse GPC-3 on the surface of transduced cells (Hepa1-6-mGPC-3, MC38-mGPC-3) (mouse, UniProt Q8CFZ4 25-553); assay: flow cytometry histograms, 20 nM antibody, Hepa1-6-mGPC-3 against parental Hepa1-6 cells
T3 construct: whole, on cells

[6] = molecular target: T4, recombinant mouse GPC-3 protein (mouse, UniProt Q8CFZ4 25-558, limits assumed, biotinylated (sites not given)); assay: cross-reactivity binding ELISA with biotinylated recombinant GPC-3, absorbance 450nm-570nm
T4 construct: Biotinylated for the cross-reactivity ELISA; also called mouse homolog of GPC-3 protein

[7] = molecular target: T2, human GPC-3 on the surface of HepG2 and …; assay: flow cytometry on HepG2 (GPC-3 High) cells, MFI against antibody (pM); remark: listed apart in the source
[8] = molecular target: T1, recombinant human GPC-3 protein; assay: binding ELISA, absorbance 450nm-570nm against Biotin-hGPC-3 (nM), batch of FIG. 1A
[9] = molecular target: T1, recombinant human GPC-3 protein; assay: binding ELISA, absorbance 450nm-570nm against Biotin-hGPC-3 (nM), batch of FIG. 1B
[10] = molecular target: T1, recombinant human GPC-3 protein; assay: binding ELISA, absorbance 450nm-570nm against Biotin-hGPC-3 (nM), batch of FIG. 1C
[11] = molecular target: T1, recombinant human GPC-3 protein; assay: binding ELISA with biotin-hGPC-3, EC50 calculated from the curves of FIG. 1A to 1C; footnote: * Average value from 3 batches

T3 sequence (Q8CFZ4 25-553 limits assumed): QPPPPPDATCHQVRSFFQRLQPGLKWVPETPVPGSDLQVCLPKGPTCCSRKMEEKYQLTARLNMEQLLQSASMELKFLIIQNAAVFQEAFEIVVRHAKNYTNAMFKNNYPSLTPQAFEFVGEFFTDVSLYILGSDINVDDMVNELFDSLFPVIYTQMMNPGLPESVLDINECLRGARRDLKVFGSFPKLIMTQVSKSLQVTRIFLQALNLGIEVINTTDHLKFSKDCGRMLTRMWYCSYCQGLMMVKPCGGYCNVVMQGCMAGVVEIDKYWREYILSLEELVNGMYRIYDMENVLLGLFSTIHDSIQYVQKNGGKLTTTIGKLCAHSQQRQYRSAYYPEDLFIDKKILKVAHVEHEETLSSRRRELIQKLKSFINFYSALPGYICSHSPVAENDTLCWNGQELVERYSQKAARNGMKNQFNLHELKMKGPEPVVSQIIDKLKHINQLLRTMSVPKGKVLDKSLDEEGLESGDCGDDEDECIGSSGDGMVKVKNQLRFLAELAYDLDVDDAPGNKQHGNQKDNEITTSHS
T4 sequence (Q8CFZ4 25-558 limits assumed): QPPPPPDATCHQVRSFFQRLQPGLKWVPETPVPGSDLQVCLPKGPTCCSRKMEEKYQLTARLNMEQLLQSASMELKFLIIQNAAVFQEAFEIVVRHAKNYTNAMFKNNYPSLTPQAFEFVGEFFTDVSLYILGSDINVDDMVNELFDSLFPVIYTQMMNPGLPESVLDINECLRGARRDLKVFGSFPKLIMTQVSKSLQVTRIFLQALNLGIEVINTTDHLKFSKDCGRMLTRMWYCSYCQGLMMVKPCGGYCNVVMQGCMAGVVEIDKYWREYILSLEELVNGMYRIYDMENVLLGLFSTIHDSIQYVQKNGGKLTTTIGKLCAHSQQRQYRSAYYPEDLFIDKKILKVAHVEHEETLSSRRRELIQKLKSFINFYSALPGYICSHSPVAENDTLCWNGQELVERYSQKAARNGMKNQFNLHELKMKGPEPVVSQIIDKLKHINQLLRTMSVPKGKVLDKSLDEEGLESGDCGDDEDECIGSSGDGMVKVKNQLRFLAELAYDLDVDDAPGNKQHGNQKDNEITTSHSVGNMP

Kd [1]: 9.02 nM | koff [1]: 0.00161 s⁻¹ | kon [1]: 179000 M⁻¹ s⁻¹ | EC50 (read off the curve) [2]: ~100 pM | EC50 (read off the curve) [3]: ~40 pM | EC50 [4]: 0.348 nM
B1: anti-GPC-3 IgG1 clone 5C4 (antibody, V domains shown)
VH: QVQLQESGGGLVKPGGSLRLSCAASGFTFSSYSMNWVRQAPGKGLEWVAVISYDGSNKYYADSVKGRFTISRDNSKNTLYLQMNSLRTEDTAVYYCARGAGPFTGFNWFDPWGQGTL
VL: EIVLTQSPATLSVSPGERATLSCRASQSVDSYLAWYQQKPGQAPRLLIYSASTRATGIPARFSGTGSGTEFTLTISSLQSEDFAVYYCQQYKRWPTWTFGLGTR
notes: Tested as IgG1; also called monoclonal antibody 5C4

Kd [1]: 13.7 nM | koff [1]: 0.0053 s⁻¹ | kon [1]: 388000 M⁻¹ s⁻¹ | EC50 [4]: 9.01 nM | binding result [5]: no binding (tested: 20 nM) | binding result [6]: no binding
B2: anti-GPC-3 IgG1 clone 1D8 (antibody, V domains shown)
VH: QVQLVQSGAEVKKPGASVKVSCKASGYTFTSYGISWVRQAPGQGLEWMGWISAYNGNTNYAQKLQGRVTMTTDTSTSTAYMELRSLRSDDTAVYYCARDGGLIAAAFGYYYYGMDVWGQGTT
VL: EIVLTQSPGTLSLSPGERATLSCRASQSVSSYLAWYQQKPGQAPRLLIYGASSRATGIPDRFSGSGSGTDFTLTISRLEPEDFAVYYCQQYERPPTFGGGTK
notes: Tested as IgG1; also called monoclonal antibody 1D8

EC50 (read off the curve) [7]: ~800 pM | EC50 (read off the curve) [2]: ~700 pM | EC50 (read off the curve) [8]: ~0.4 nM | EC50 (read off the curve) [9]: ~0.9 nM | EC50 (read off the curve) [10]: ~1 nM | EC50 [11]: 0.803 nM
B3: humanized GC33 IgG1 (antibody, V domains shown)
VH: QVQLVESGAEVKKPGASVKVSCKASGYTFTDYEMHWVRQAPGQGLEWMGALDPKTGDTAYSQKFKGRVTITADESTSTAYMELSSLRSEDTAVYYCARFYSYTYWGQGTLVTVSS
VL: DVVMTQSPLSLPVTPGEPASISCRSSQSLVHSNGNTYLHWYLQKPGQSPQLLIYKVSNRFSGVPDRFSGSGSGTDFTLKISRVEAEDVGVYYCSQNTHVPPTFGQGTKLEIK
